US20050064392A1 (TRUSTEES OF THE UNIVERSITY OF PENNYLVANIA, published 2005)

Target: T1, CXCR4 (UniProt P61073 1-352)
T1 construct: whole, on cells; also called X4
Assay: western blot binding assay on CXCR4-transfected cells

T1 sequence (P61073 whole entry): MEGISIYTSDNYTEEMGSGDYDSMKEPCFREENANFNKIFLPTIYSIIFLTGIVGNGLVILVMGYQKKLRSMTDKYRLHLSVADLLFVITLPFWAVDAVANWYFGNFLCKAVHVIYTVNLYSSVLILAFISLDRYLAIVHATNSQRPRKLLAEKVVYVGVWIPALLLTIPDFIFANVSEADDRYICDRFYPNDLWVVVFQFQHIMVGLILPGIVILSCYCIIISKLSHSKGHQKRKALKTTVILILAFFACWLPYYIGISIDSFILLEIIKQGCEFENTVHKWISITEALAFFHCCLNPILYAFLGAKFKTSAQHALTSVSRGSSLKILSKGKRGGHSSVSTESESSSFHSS

B1: HIV-2/VCP gp120 (other)
chain: KQFVTVFYGIPAWRNASIPLFCATKNRDTWGTIQCLPDNDDYQEIALNVTEAFDAWNNTVTEQAVEDVWNLFETSIKPCVKLTPLCVAMNCTRNMTTSTGTTDTQNITIINDTSPCVRADNCTGLKEEEMVDCQFNMTGLERDKRKQYTEAWYSKDVICDNNTSSRSKCYMNHCNTSVITESCDKHYWDAMRFRYCAPPGFALLRCNDTNYSGFAPNCSKVVAATCTRMMETQSSTWFGFNGTRAENRTYIYWHGKNNRTIISLNNFYNLTMHCKRPGNKTVLPIMSGFKFHSKPVINKKPRQAWCWFKGEWKEAMQEVKETLAKHPRYKGNRSRTENIKFKAPGRGSDPEAAYMWTNCRGEFLYCNMTWFLNWVDNRTGQKQRNYAPCHIRQIINTWHRVGKNVYLPPREGELTCNSTVTSIIANIDTGDQTDITFSAEVAELYRLELGDYKLVEITPIGFAPTSVKRYSSAHQRHTR
notes: also called gp120 Env of HIV-2/VCP
B1: binds.
